B1: 6D6 monoclonal antibody (antibody, V domains shown)
VH: EVQLQQSGAELVKPGASVKLSCTTSGFNIIDTYMHWVKQRPEEGLEWIGGIDPVNGNSEYDPKFQDKATITADTSSNTAYLHLSRLTSEDTAVYYCASAHYYGSSSSFPYWGQGTLVTVSA
VL: DIVMTQSQKFMSTSVGDRVSVTCKASQNVGTHVAWYQQKPGQSPKALIYSASYRYSGVPDRFTGSGVGTDFTLTITNVQSEDLAEYFCQQYNSYFTFGSGTKLEIK
notes: also called mAb 6D6; source: mouse hybridoma, ascites, purified (protein A agarose); copies: 2 + 2
B2: 7D6 monoclonal antibody (antibody, V domains shown)
VH: EVQLQQSGAELVRPGASVKLSCTASGFNIKDTYIHWVKQRPEQGLEWIGRIDPGDGDTEYDPSFQGKATITADTSSNTAYLELSSLTSEDTAVYYCTRFYDYVDYGMDYWGQGTSVTVSS
VL: DIQMTQSPASLSASVGETVTITCRASGNIHNYLAWYQQKQGKSPQLLVYNAKTLADGVPSRFSGSGSGTQYSLKINSLQPEDFGSYYCQHFWSTPPWTFGGGTKLEVK
notes: also called mAb 7D6; source: mouse hybridoma, ascites, purified (protein A agarose); copies: 2 + 2

Assays:
[1] = biological target: T1, SARS-CoV receptor-binding domain (RBD) (SARS-CoV (GenBank NC_004718.3), UniProt P59594); experiment: SPR; conditions: both partners purified
T1 construct: also called SARS-CoV RBD; source: High Five cells (baculovirus, pAcgp67B), purified from the medium (Ni-sepharose)

[2] = biological target: T2, SARS-CoV-2 receptor-binding domain (RBD) (SARS-CoV-2 Wuhan-Hu-1 (GenBank …, UniProt P0DTC2)); experiment: cell-based or functional assay
[3] = biological target: T2, SARS-CoV-2 receptor-binding domain (RBD); experiment: SPR; conditions: both partners purified
[4] = biological target: T1, SARS-CoV receptor-binding domain (RBD); experiment: SPR; conditions: both partners purified; remark: listed apart in the source
[5] = biological target: T2, SARS-CoV-2 receptor-binding domain (RBD); experiment: SPR; conditions: both partners purified; remark: listed apart in the source

Binder	Kd [1]	Fig. S4: IC50 of neutralisation, LV-SARS-CoV-2 WT [2]	Kd [3]	koff [3]	kon [3]	Kd [4]	koff [4]	kon [4]	Kd [5]
B1	3.72 nM	10.9 µg/mL	0.01 nM	1.5e-06 s⁻¹	115000 M⁻¹ s⁻¹	0.37 nM	6.3e-06 s⁻¹	17000 M⁻¹ s⁻¹	
B2		5.98 µg/mL	< 0.01 nM	1.1e-06 s⁻¹	180000 M⁻¹ s⁻¹	0.03 nM	1.7e-06 s⁻¹	58500 M⁻¹ s⁻¹	0.00265 nM

— publication PMC8476643 (Nature Communications, 2021)
